Measurements taken from paper doi:10.1101/2025.05.16.654599 (bioRxiv, 2025).

T1: mNeon PPM1H (human, UniProt Q9ULR3 1-514)
T1 construct: PPM1H phosphatase, human, full length; mNeon inserted into loop 1 (residues 115-133) at position 125; mNeon is the fluorophore read in MST; not measured here; also called HisSUMO-mNeon PPM1H; His SUMO mNeon PPM1H; not shown: His-SUMO, N-terminal, cleaved; mNeon, internal (in loop 1 at position 125), kept
T1 sequence (looked up): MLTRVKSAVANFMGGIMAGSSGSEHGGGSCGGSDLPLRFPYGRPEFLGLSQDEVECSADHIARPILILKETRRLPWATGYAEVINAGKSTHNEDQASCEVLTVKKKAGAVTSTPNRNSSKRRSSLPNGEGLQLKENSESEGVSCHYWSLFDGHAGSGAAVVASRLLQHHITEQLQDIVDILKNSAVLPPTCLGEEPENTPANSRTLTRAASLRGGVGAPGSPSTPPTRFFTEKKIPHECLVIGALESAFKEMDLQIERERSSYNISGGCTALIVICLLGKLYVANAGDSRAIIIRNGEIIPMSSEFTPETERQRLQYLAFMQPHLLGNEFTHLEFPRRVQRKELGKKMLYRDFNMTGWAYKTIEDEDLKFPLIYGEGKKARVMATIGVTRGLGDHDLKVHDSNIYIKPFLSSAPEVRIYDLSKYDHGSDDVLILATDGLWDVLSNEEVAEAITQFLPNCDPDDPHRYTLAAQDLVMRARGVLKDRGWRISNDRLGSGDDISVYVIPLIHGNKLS


Tests used:
mNeon PPM1H (human) = mNeon PPM1H (human) (UniProt Q9ULR3); assay: MST; unlabeled Rab titrated (16 serial dilutions) against 100 nM fluorescent mNeon PPM1H form; Monolith NT.115; 30 min in the dark in a reaction buffer; 3 independent measurements with different protein preparations
mNeon PPM1H = target: T1, mNeon PPM1H; assay: as above; conditions: both partners purified

| Kd (mNeon PPM1H (human)) | Kd (mNeon PPM1H) | Molecule |
| --- | --- | --- |
| 7.4 µM | – | Rab12 (Q101L) full length (from UniProt Q6IQ22-2 1-244) (natural protein) |
| – | 1.3 ± 0.9 µM | Rab10 (Q68L) full length (natural protein, human, UniProt P61026 1-200, looked up, also called His SUMO Rab10 (Q68L); non-phosphorylated Rab10; not shown: His-SUMO, N-terminal, cleaved) MAKKTYDLLFKLLLIGDSGVGKTCVLFRFSDDAFNTTFISTIGIDFKIKTVELQGKKIKLQIWDTAGLERFHTITTSYYRGAMGIMLVYDITNGKSFENISKWLRNIDEHANEDVERMLLGNKCDMDDKRVVPKGKGEQIAREHGIRFFETSAKANINIEKAFLTLAEDILRKTPVKEPNSENVDISSGGGVTGWKSKCC |
| – | 1.4 ± 0.98 µM | His Rab8A (Q67L) full length (natural protein, human, UniProt P61006 1-207, looked up, Printed both as 'His Rab8A' and 'Rab8A-6XHis'; also called Rab8A-6XHis; non-phosphorylated Rab8A) MAKTYDYLFKLLLIGDSGVGKTCVLFRFSEDAFNSTFISTIGIDFKIRTIELDGKRIKLQIWDTAGLERFRTITTAYYRGAMGIMLVYDITNEKSFDNIRNWIRNIEEHASADVEKMILGNKCDVNDKRQVSKERGEKLALDYGIKFMETSAKANINVENAFFTLARDIKAKMDKKLEGNSPQGSNQGVKITPDQQKRSSFFRCVLL |
| – | 0.99 ± 0.63 µM | thio-phosphorylated Rab8A (natural protein, human, UniProt P61006 1-207, looked up, thio-phosphorylated with ATPγS by MST3 kinase (residue not given); fully modified by PhosTag gel, Rab8A GTPase, human, full length, non-prenylated, Q67L, thio-phosphorylated; Removal of His-MST3 before MST is not described for this preparation; also called thio-pRab8A; His pRab8A Q67L; source: E. coli, purified His Rab8A Q67L, then incubated overnight at 4°C with His-MST3 kinase and 2 mM ATPγS) MAKTYDYLFKLLLIGDSGVGKTCVLFRFSEDAFNSTFISTIGIDFKIRTIELDGKRIKLQIWDTAGLERFRTITTAYYRGAMGIMLVYDITNEKSFDNIRNWIRNIEEHASADVEKMILGNKCDVNDKRQVSKERGEKLALDYGIKFMETSAKANINVENAFFTLARDIKAKMDKKLEGNSPQGSNQGVKITPDQQKRSSFFRCVLL |
